The text below walks through data of US20160200830A1 (NANJING LEGEND BIOTECH, published 2016).

To fix the notation:
B1: sdAb A69433 (VHH)
VHH: QVKLEESGGGLVQAGGSLRLSCVASGNVFGIDAVGWYRQAPGKQRELVAATTTSGSSTNYADSVKGRFTISRDIAKNTVYLQMDSLKPEDTAVYYCYARPKQATLIRDDYWGQGTQVTVSS
notes: Llama sdAb, made in E. coli periplasm, His-tagged, for SPR; not shown: C-terminal histidine tag added by vector pSJF2H
B2: sdAb A69449 (VHH)
VHH: QVQLVESGGGVVQAGGSLRLSCVASGSVFSIDAMGWYRQAPGNQRELVAAMTNAGSTNYADSVKGRFTISRDNAENTVYLQMNSLKPEDTAVYYCNARSKLIARINNPYEYWGQGTQVTVSS
notes: Llama sdAb, made in E. coli periplasm, His-tagged, for SPR; also called A60449; not shown: C-terminal histidine tag added by vector pSJF2H
B3: sdAb A69447 (VHH)
VHH: QVKLEESGGGSVQAGGSLRLSCTGSGSIFPLNDMGWYRQAPGKQRELVATITRGGTTNYADSVKGRFTISRDSNAKNTVYLQMNSLKVEDTAVYYCNMDNRVGGSYWGQGTQVTVSS
notes: as for B1
B4: sdAb A12666 (VHH)
VHH: QVKLEESGGGLVQAGGSLRLSCVASGSGFGVNGVIWYRQAPGKQRELVALIKSDGYTNYRESVKGRFTISRDDAKNTVWLQMNALEPEDTGVYYCKTPGVPFGQGTQVTVSS
B5: sdAb A13154 (VHH)
VHH: B4 VHH with K3Q, E5V, A14P, V31I, N83S
B6: sdAb A12690 (VHH)
VHH: B4 VHH with K3Q, E5V, A14P, V31I, Q44R
B7: sdAb A13355 (VHH)
VHH: B4 VHH with V31I, K64R
B8: sdAb A12692 (VHH)
VHH: B4 VHH with Q1E, K3Q, E5V, S7C, V31I
B9: sdAb A12659 (VHH)
VHH: B4 VHH with Q1E, K3Q, E5V, S7C, V31I, K75R
B10: sdAb A13152 (VHH)
VHH: B4 VHH with K3Q, E5V, S25P, V31I
B11: sdAb A13376 (VHH)
VHH: QVKLEESGGGLVQAGGSLRLSCAASGNVFTIAAMAWYRQAPGKERELVAGITTGGSTNYADSVKGRFTISRDNAQNTMYLQMNSLRPEDTAVYFCNAVTKWAARVGGSAEYEYWGQGTQVTVSS
B12: sdAb A69441 (VHH)
VHH: QVKLEESGGGLVQPGGSLRLSCAASGSIFSIKVMGWYRQAPGKQRELVADITSGGSTDYSDSVKGRFTISRDNAKNTVYLQMNSLKPEDTAVYYCNADLGCSGAGSCPDYWGQGTQVTVSS
B13: sdAb A69476 (VHH)
VHH: QVKLEESGGGLVQPGGSLRLSCAASGNVFTIDAMGWYRQAPGKEREVVVGMTNGGKTNYADSVKGRFTISRDNAKNTVSLQMNSLKPEDTAVYYCYARSKLIATINNPYDYWGQGTQVTVSS
B14: sdAb A60219 (VHH)
VHH: B4 VHH with K3Q, E5V, V31I
notes: Llama sdAb, made in E. coli periplasm, His-tagged, for SPR; also called A602019; not shown: C-terminal histidine tag added by vector pSJF2H
B15: sdAb A60401 (VHH)
VHH: B11 VHH with A23E, A35G, Y37F, V92A, F94S
notes: as for B1

Numbering of substitutions follows the chain as printed.

T1 sequence (P02787 20-698 limits assumed): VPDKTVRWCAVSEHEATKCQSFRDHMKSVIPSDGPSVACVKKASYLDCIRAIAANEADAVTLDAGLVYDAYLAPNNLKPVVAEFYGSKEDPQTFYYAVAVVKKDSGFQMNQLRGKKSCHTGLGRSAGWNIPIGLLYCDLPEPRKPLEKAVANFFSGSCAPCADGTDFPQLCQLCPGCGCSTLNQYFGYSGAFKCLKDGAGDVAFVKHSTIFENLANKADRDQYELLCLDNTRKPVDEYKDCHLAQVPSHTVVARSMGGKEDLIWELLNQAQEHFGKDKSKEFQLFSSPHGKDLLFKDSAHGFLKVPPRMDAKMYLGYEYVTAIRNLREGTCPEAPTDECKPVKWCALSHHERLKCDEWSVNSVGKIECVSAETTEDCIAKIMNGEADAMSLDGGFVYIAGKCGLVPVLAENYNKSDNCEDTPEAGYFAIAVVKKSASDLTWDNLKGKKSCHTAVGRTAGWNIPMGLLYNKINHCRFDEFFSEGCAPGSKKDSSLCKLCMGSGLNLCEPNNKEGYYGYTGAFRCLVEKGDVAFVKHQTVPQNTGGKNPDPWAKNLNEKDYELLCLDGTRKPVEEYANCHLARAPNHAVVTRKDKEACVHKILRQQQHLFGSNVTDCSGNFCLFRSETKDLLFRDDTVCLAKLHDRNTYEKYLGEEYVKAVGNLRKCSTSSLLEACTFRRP

The target in one assay is monkey transferrin (monkey). In words: SPR, transferrin immobilized, sdAb as analyte.
Take B1: binding was put at a Kd of 2.4 nM, the koff came to 0.000593 s⁻¹ and the kon was 247000 M⁻¹ s⁻¹.

B2 displayed a dissociation constant Kd of 1.12 nM, a koff of 0.000529 s⁻¹ and a kon of 471000 M⁻¹ s⁻¹.

Molecule B3 displayed a Kd of 0.25 nM, a koff of 7.58e-05 s⁻¹ and a kon of 304000 M⁻¹ s⁻¹.

Another assay concerns the target T1, human transferrin (human, UniProt P02787 20-698).
T1 construct: Immobilized on a CM5 chip by amine coupling (SPR) or coated on a plate (phage ELISA)
The assay is described as follows: SPR, transferrin immobilized, sdAb as analyte.
Regarding B1, the affinity, expressed as Kd, was 5.76 nM; the koff was 0.000642 s⁻¹; the kon was determined as 111000 M⁻¹ s⁻¹.

B2 displayed a Kd of 2.03 nM, a koff of 0.000695 s⁻¹ and a kon of 342000 M⁻¹ s⁻¹.

Molecule B3 came in with a Kd of 1.03 nM, a koff of 0.000209 s⁻¹ and a kon of 203000 M⁻¹ s⁻¹.

The target in the next assay is T1, human transferrin. In words: phage display panning and phage ELISA. The protocol: The llama immune phage display library was panned against transferrin that was conjugated to M-280 beads (Invitrogen). Approximately 3×10¹¹ phages were added to the beads and incubated at 37° C. for 2 hours for antigen binding. After disposal of unbound phages, the beads were washed six times with phosphate buffered saline supplemented with 0.05% Tween 20 (PBST) for round one, and the washes were increased by one for each additional round. Phages were eluted by 10 min incubation with 100 μl 100 mM triethylamine, and the eluate was subsequently neutralized with 200 μl 1 M Tris-HCl (pH 7.5). Phages were amplified as described above, but on a smaller scale. After two rounds of panning, eluted phages were used to infect exponentially growing E. coli TG1. Individual colonies were used in phage enzyme-linked immunosorbent assay (ELISA).
For phage ELISA, a 96-well microliter plate was coated overnight with 2 μg/ml human transferrin and then blocked with 4% […] phosphate buffered saline (MPBS) for 2 hours at 37° C. Phage from individual clones were pre-blocked with 4% MPBS overnight, added to the pre-blocked wells and incubated for 1 hour. Phage ELISA was performed using the GE Healthcare Detection Module Recombinant Phage Antibody System (GE Healthcare, Uppsala, Sweden) and positive phage clones were sequenced.
As for B4, the binding result is “binds”.

For the molecule B5, the binding result was “binds”.

As to B6, the binding result was “binds”.

Consider B7, for which the binding result is recorded as “binds”.

With B8, the binding result is given as “binds”.

For B9, the binding result is reported as “binds”.

As for B10, the binding result is listed as “binds”.

With B11, the binding result was “binds”.

Take B12: the binding result is “binds”.

Regarding B13, the binding result is reported as “binds”.

A further assay addresses T1, human transferrin. In words: SPR, Biacore T200, transferrin immobilized on CM5 chip, sdAb as analyte. The protocol: Experiments were performed using a BIAcore T200 optical sensor platform and research grade CM5 sensor chips (GE Healthcare). Human transferrin was immobilized on the sensor chip surface by standard amine coupling. All experiments were carried out in HEPES buffer [10 mM HEPES (pH 7.4), 150 mM NaCl, 3.4 mM EDTA, 0.005% Tween 20] at 25° C. Antibodies were injected at serial dilutions ranging from 0.25 nM to 16 nM at a flow rate of 30 μl/min unless otherwise indicated. The amount of bound analyte after subtraction from the blank control surface is shown as relative response units (RU). The double referenced sensorgrams from each injection series were analyzed for binding kinetics using BIA evaluation software (GE Healthcare). Dissociation constants (KDs) were calculated from the on- and off-rates (kₒₙ and koff, respectively), as determined by global fitting of the experimental data to a 1:1 Langmuir binding model (Chi²<1).
In the case of B14, the Kd was found to be 0.0131 nM, the koff is 0.000674 s⁻¹ and the kon worked out at 5.14e+07 M⁻¹ s⁻¹.

In turn, B15 showed a Kd of 0.0671 nM, a koff of 6.22e-05 s⁻¹ and a kon of 927000 M⁻¹ s⁻¹.
